From paper PMC8113886, “The Rid family member RutC of Escherichia coli is a 3-aminoacrylate deaminase” (The Journal of Biological Chemistry, 2021)

What was measured:
RidA = biological target: T1, RidA (Salmonella enterica, UniProt Q7CP78); test: semicarbazone competition assay, absorbance at […] nm; format: biochemical; conditions: imine generated in situ by L-amino acid oxidase from 10 mM L-methionine; 10 uM RidA, 50 mM potassium pyrophosphate pH 8.7, 23 °C
T1 construct: full-length RidA; purification and tag not described here
T1 sequence (Q7CP78 1-128): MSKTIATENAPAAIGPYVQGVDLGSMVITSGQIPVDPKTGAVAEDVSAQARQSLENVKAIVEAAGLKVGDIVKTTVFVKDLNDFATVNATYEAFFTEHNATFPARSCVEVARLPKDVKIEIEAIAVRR

purified protein = substrate: NC=CC(=O)O; test: purified protein; format: biochemical, Escherichia coli; conditions: 3-AA generated in situ by 5 uM RutB, varied concentration is ureidoacrylate, not 3-AA, spontaneous deamination not subtracted, 3 uM RutC, 40 mM Tris-HCl pH 8.2, 23 °C

With CSCCC(=N)C(=O)O [imino derivative of methionine] the “semicarbazone competition assay, absorbance at 248 nm” value (RidA) was “RidA showed activity primarily on the imino derivatives of methionine and leucine”.

B1: RutC (Escherichia coli K-12) (protein)
chain: MPKSVIIPAGSSAPLAPFVPGTLADGVVYVSGTLAFDQHNNVLFADDPKAQTRHVLETIRKVIETAGGTMADVTFNSIFITDWKNYAAINEIYAEFFPGDKPARFCIQCGLVKPDALVEIATIAHIAK
For B1, the Km (purified protein) was 9.1 ± 1.9 mM, the Vmax (purified protein) was 31.9 ± 3.9 nmoles of NADPH consumed min^-1 and the kcat (purified protein) was 0.867 s⁻¹.
